As usually defined, the EC50 (read off the curve) is the concentration at which the effect is half-maximal.

The text below walks through data of US20210246218A1 (LYVGEN BIOPHARMA SUZHOU, published 2021).

For one test, the target named is T1, human PD-L1 on CHO cells (human, UniProt Q9NZQ7 19-290).
T1 construct: whole, on cells
Briefly: flow cytometry on CHO cells over-expressing the target. How it is done: (§1) The cells were resuspended in ice cold assay buffer at 2*10\hat{ }6/mL and transferred to 96-well V-bottom plate with 100 μL/well. […] The plate was incubated in the dark for 2 hours at 4° C. The cells were washed 3 times by centrifugation at 1000 g for 3 min and resuspended in 100 μL ice cold assay buffer containing goat F(ab′)₂ anti-human IgG-Fc (PE) or PE goat anti-mouse IgG antibody. The plate was incubated in the dark for another 1 hour at 4° C. The cells were washed 2 times by centrifugation at 1000 g for 3 min and resuspended in ice cold assay buffer containing 2% PFA and analyzed on the flow cytometer immediately.
Background: A flow cytometer gives signals particle by particle.

The next test addresses T2, human LTBR on CHO cells (human, UniProt P36941 31-435).
T2 construct: whole, on cells
Described as above. The method, then: as §1

A further test has as its target T3, human LAG-3 on CHO cells (human, UniProt P18627 23-525).
T3 construct: whole, on cells
T3 sequence (looked up): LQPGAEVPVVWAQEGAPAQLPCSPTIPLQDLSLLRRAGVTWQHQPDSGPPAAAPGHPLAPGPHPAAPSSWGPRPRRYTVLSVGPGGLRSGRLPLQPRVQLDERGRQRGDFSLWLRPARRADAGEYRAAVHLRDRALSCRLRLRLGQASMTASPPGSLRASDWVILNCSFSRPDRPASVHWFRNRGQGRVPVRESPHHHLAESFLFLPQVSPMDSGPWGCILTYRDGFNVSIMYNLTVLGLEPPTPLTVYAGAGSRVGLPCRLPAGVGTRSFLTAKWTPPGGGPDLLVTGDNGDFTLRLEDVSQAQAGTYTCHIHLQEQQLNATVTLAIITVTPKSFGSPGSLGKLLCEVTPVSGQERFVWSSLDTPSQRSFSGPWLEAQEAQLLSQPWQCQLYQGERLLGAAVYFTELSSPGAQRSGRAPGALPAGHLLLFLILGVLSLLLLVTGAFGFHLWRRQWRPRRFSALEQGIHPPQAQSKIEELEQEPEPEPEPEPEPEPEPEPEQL
Described as above. The method, then:
as §1

For another test, the target named is T4, human TIGIT on CHO cells (human, UniProt Q495A1 22-244).
T4 construct: whole, on cells
T4 sequence (looked up): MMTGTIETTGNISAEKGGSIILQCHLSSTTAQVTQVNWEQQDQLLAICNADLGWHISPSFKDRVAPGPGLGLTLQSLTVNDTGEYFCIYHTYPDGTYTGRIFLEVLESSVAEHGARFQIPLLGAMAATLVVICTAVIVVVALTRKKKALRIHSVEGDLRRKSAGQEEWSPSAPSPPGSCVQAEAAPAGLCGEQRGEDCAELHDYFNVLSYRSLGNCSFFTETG
Described as above. How it is done:
as §1

A further test addresses T5, human CD40 on CHO cells (human, UniProt P25942 21-277).
T5 construct: whole, on cells
Described as above. The method, then: as §1

A further test deals with T6, human B7-H3 on CHO cells (human, UniProt Q5ZPR3 29-534).
T6 construct: whole, on cells
T6 sequence (looked up): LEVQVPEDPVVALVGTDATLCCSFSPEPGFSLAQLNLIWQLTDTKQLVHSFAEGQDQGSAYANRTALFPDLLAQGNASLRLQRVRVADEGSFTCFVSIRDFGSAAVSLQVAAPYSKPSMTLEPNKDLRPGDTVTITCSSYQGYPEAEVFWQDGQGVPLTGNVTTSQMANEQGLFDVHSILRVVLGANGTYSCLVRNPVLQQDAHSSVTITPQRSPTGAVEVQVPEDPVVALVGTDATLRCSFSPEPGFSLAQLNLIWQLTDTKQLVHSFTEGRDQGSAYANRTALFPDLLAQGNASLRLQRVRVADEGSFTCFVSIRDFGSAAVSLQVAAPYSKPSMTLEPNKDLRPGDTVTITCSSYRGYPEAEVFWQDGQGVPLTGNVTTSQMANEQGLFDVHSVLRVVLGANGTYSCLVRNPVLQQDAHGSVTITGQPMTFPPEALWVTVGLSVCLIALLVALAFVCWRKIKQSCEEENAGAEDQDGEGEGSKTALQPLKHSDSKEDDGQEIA
Described as above. How it is done:
as §1

The target of a further test is T7, human PD-1 on CHO cells (human, UniProt Q15116 25-288).
T7 construct: whole, on cells
Described as above. How it is done: as §1

For a further test, the target named is T8, mouse CD137 on CHO cells (mouse, UniProt P20334 24-256).
T8 construct: whole, on cells; also called murine cellular CD137
Described as above. How it is done:
as §1

Another test concerns the target T9, human CD27 on CHO cells (human, UniProt P26842 20-260).
T9 construct: whole, on cells
Described as above. How it is done:
as §1

Test [1] has as its target T10, recombinant human CD137 receptor protein (human, UniProt Q07011 24-186).
T10 construct: Coated on ELISA plates; also called recombinant human CD137 protein
Briefly: ELISA, recombinant human CD137 protein coated, antibody titrated. How it is done: The human or cynomolgus monkey CD137 receptor protein was diluted in DPBS to 1 μg/mL, and then coated onto an ELISA plate (Corning, Catalog number: 9018, high binding) with a volume of 100 μL (0.1 μg) or 50 μL (0.05 μg) per well, and incubated at 4° C. overnight. The plate was decanted and washed once; assay diluent was added 200 μL/well. After a one-hour incubation at room temperature, the plate was washed with PBST one time. […] The plate was incubated one hour at room temperature and then washed three times with PBST. Goat anti-human IgG-H+L HRP conjugated at 1:100,000 dilution was added to the plate at 100 μL/well. The plate was then incubated one hour at room temperature followed by washing with PBST four times. The TMB substrate solution was added at 100 μL/well. The color was allowed to develop for 15 minutes, and was stopped with 100 μL/well 2N H₂SO₄. Absorbance at 450 nm and 620 nm was determined by a Tecan F200 Pro reader.
Graphpad 7.0, “[Agonist] vs. response—Variable slope (four parameters)” was used to plot the binding data and calculate binding EC₅₀ values.
In general terms: ELISA stands for enzyme-linked immunosorbent assay.

T2 sequence (P36941 31-435): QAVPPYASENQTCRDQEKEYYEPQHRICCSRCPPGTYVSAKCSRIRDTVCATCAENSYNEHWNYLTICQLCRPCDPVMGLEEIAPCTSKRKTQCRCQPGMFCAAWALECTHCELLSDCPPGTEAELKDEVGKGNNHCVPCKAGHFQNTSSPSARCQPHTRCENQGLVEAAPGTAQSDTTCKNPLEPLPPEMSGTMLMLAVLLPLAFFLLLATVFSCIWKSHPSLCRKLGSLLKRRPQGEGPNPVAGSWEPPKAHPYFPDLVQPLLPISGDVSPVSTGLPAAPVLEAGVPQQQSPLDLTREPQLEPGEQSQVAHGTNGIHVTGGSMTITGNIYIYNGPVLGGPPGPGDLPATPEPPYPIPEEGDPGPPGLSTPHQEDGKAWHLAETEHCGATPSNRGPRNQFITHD
T5 sequence (P25942 21-277): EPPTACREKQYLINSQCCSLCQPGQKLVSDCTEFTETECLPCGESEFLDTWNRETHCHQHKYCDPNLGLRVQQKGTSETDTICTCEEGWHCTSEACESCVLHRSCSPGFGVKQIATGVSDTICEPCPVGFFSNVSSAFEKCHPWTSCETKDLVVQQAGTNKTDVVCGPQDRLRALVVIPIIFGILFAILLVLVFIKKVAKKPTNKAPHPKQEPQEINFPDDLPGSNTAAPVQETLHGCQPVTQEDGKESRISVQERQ
T8 sequence (P20334 24-256): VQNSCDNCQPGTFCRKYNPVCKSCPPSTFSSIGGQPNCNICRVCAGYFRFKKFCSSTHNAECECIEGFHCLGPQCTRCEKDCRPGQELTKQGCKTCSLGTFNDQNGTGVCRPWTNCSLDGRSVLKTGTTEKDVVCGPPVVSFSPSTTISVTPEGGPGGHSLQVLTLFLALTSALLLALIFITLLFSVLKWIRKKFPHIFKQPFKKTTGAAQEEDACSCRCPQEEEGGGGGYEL
T9 sequence (P26842 20-260): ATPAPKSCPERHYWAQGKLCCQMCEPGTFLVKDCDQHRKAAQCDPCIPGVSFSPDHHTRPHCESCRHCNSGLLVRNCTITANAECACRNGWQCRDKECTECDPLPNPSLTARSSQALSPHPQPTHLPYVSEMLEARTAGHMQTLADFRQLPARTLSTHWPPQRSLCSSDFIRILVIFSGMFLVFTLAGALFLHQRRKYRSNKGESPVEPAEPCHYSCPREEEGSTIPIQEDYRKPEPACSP
T1 sequence (Q9NZQ7 19-290): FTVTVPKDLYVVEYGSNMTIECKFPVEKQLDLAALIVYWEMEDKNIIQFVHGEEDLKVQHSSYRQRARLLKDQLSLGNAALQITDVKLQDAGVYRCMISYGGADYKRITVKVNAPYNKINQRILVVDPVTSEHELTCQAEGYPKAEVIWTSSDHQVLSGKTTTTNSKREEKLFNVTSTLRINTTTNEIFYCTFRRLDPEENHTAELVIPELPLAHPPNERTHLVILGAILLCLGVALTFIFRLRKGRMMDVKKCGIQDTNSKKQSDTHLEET
T7 sequence (Q15116 25-288): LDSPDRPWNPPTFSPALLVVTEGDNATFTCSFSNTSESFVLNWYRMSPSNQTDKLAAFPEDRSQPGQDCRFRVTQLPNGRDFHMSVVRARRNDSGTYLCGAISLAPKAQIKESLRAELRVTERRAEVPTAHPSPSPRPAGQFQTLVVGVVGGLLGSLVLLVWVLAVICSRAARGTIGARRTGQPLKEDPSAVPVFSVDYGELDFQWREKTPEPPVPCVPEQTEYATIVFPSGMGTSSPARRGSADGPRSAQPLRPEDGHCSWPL

B1: Clone 3712-IgG1v (IgG1v/kappa) (antibody)
heavy: QVQLVQSGAEVKKPGASVKVSCKASGYTFAGFEMHWVRQAPGQGLEWMGAIDPKTGGTDYNQKFKDRVTMTRDTSISTAYMELSRLRSDDTAVYYCARDLGYFDVWGQGTLVTVSSASTKGPSVFPLAPSSKSTSGGTAALGCLVKDYFPEPVTVSWNSGALTSGVHTFPAVLQSSGLYSLSSVVTVPSSSLGTQTYICNVNHKPSNTKVDKKVEPKSCDKTHTCPPCPAPELLGPSVFLFPPKPKDTLMISRTPEVTCVVVDVEHEDPEVKFNWYVDGVEVHNAKTKPREEQYNSTYRVVSVLTVLHQDWLNGKEYKCKVSNKALPAPIEKTISKAKGQPREPQVYTLPPSREEMTKNQVSLTCLVKGFYPSDIAVEWESNGQPENNYKTTPPVLDSDGSFFLYSKLTVDKSRWQQGNVFSCSVMHEALHNHYTQKSLSLSPGK
light: DIQMTQSPSSLSASVGDRVTITCRASQDIRSNLNWYQQKPGGAVKLLIYYTSRLHSGVPSRFSGSGSGTDYTLTISSLQPEDFATYFCQQSEKLPRTFGGGTKVEIRRTVAAPSVFIFPPSDEQLKSGTASVVCLLNNFYPREAKVQWKVDNALQSGNSQESVTEQDSKDSTYSLSSTLTLSKADYEKHKVYACEVTHQGLSSPVTKSFNRGEC
notes: copies: 2 + 2
For B1, the binding result with human PD-L1 on CHO cells, in the test with human LTBR on CHO cells, with human LAG-3 on CHO cells, with human TIGIT on CHO cells, in the test with human CD40 on CHO cells and with human B7-H3 on CHO cells was “no binding” each time. Besides, the binding result in the test with human PD-1 on CHO cells, with mouse CD137 on CHO cells and with human CD27 on CHO cells was “no binding” in each case. Moreover, in test [1], the “EC50 (read off the curve)” value was around 0.05 µg/mL.
